Data as given in patent publication US20240425571A1 (OHIO STATE INNOVATION FOUNDATION, published 2024).
Numbering of substitutions follows the chain as printed.

B1: huPIIO-1VH1VL1 (antibody, V domains shown)
VH: QVQLQESGPGLVKPSQTLSLTCTVSGYSITSDYAWNWIRQFPGNKLEWMGYISYSGSTSYTPSLKSRVTISRDTSKNHFSLKLSSVTAADTAVYYCAKSGGDYYGSSSYWYFDVWGQGTMVTVSS
VL: DIVLTQSPSSLAVSLGERATMNCKSSQSLLNSRSQKNYLAWYQQKPGQPPKLLIYGASTRGSGVPDRFSGSGSGTDFTLTISSLQAEDVAVYYCQNDHSYPFTFGQGTKLEIKR
notes: Humanized 4D3/PIIO-1 IgG made in Expi293 cells; also called H1L1; HuPIIO-1VH1/L1
B2: huPIIO-1VH2VL2 (antibody, V domains shown)
VH: B1 VH with V68I, S80F
VL: B1 VL with A19V, L84V
notes: Humanized IgG from Expi293, tested as culture supernatant; also called H2L2; HuPIIO-1VH2/L2
B3: huPIIO-1VH1VL2 (antibody, V domains shown)
VH: B1 VH
VL: B1 VL with A19V, L84V
notes: Humanized IgG from Expi293; also called H1L2; HuPIIO-1VH1/L2
B4: huPIIO-1VH1VL3 (antibody, V domains shown)
VH: B1 VH
VL: B1 VL with L15A, A19V, N22S, L84V, Q106S
notes: Humanized IgG from Expi293, tested as culture supernatant; also called H1L3; HuPIIO-1VH1/L3
B5: huPIIO-1VH2VL1 (antibody, V domains shown)
VH: B1 VH with V68I, S80F
VL: B1 VL
notes: Humanized IgG from Expi293; also called H2L1; HuPIIO-1VH2/L1
B6: huPIIO-1VH2VL3 (antibody, V domains shown)
VH: B1 VH with V68I, S80F
VL: B1 VL with L15A, A19V, N22S, L84V, Q106S
notes: Humanized IgG from Expi293, tested as culture supernatant; also called H2L3; HuPIIO-1VH2/L3
B7: huPIIO-1VH3VL1 (antibody, V domains shown)
VH: B1 VH with Q1D, V68I, S80F, V93T, M120T
VL: B1 VL
notes: Humanized IgG from Expi293, tested as culture supernatant; also called H3L1; HuPIIO-1VH3/L1
B8: huPIIO-1VH3VL2 (antibody, V domains shown)
VH: B1 VH with Q1D, V68I, S80F, V93T, M120T
VL: B1 VL with A19V, L84V
notes: Humanized IgG from Expi293, tested as culture supernatant; also called H3L2
B9: huPIIO-1VH3VL3 (antibody, V domains shown)
VH: B1 VH with Q1D, V68I, S80F, V93T, M120T
VL: B1 VL with L15A, A19V, N22S, L84V, Q106S
notes: Humanized IgG from Expi293, tested as culture supernatant; also called H3L3; HuPIIO-1VH3/L3
B10: huPIIO-1VH4VL1 (antibody, V domains shown)
VH: B1 VH with Q1D, V68I, S80F, K82Q, A89E, V93T, M120T
VL: B1 VL
notes: Humanized IgG from Expi293, tested as culture supernatant; also called H4L1; HuPIIO-1VH4/L1
B11: huPIIO-1VH4VL2 (antibody, V domains shown)
VH: B1 VH with Q1D, V68I, S80F, K82Q, A89E, V93T, M120T
VL: B1 VL with A19V, L84V
notes: Humanized IgG from Expi293, tested as culture supernatant; also called H4L2; HuPIIO-1VH4/L2
B12: huPIIO-1VH4VL3 (antibody, V domains shown)
VH: B1 VH with Q1D, V68I, S80F, K82Q, A89E, V93T, M120T
VL: B1 VL with L15A, A19V, N22S, L84V, Q106S
notes: Humanized IgG from Expi293, tested as culture supernatant; also called H4L3; HuPIIO-1VH4/L3
B13: 5C5 (antibody, V domains shown)
VH: EVKLVESGGGSVKPGGSLKLSCAASGFTFSNYVMSWVRQTPEKRLEWVATISSGGSYTYYPDSVKGRLTISRDNAKNTLYLQMSSLRSEDTAMYYCARGYDNGDYVMDYWGQGTSVTVSS
VL: DIVLTQSPASLAVSLGQRATISCRASESVDTYGNSFMHWYQQIPGQPPKVLIYRASNLESGIPARFSGSGSRTDFTLTINPVEAGDVATYYCQQTNEHPPTFGGGTKLEIK
notes: anti-human GARP clone; printed 5C5 on the sheets, 5c5 / m5c5 / 5C5 in the text; also called m5c5

What follows are binders tested against T1, human GARP (glycoprotein A repetitions predominant, LRRC32) on the cell surface (human, UniProt Q14392 20-662) (assay: FACS, Ag(+) cells, culture supernatant, 0.2 ug/ml).
T1 construct: whole, on cells; also called hGARP; free GARP
T1 sequence (looked up): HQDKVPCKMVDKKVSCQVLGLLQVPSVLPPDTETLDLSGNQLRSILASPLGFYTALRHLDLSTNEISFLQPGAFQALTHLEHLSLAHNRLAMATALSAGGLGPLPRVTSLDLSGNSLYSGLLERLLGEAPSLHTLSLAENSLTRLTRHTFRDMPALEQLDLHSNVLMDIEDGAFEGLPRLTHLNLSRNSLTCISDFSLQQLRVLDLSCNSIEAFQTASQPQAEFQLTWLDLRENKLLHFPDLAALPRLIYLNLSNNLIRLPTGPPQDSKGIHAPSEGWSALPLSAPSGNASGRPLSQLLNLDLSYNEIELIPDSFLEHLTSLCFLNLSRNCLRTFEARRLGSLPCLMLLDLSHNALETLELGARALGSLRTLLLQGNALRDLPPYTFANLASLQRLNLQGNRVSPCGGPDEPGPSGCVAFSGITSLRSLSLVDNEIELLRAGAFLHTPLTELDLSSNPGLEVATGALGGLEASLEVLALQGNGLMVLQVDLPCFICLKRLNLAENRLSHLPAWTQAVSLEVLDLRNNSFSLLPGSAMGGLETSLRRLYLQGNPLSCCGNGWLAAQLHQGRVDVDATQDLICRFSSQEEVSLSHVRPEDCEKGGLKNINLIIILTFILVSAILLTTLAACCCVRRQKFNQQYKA

Binder | MFI [MFI]
B1 | 23.9
B2 | 23.2
B3 | 22.2
B4 | 22.9
B5 | 23.3
B6 | 23.4
B7 | 23.9
B8 | 22.7
B9 | 21.9
B10 | 24.8
B11 | 22.4
B12 | 25

What follows are binders tested against T1, human GARP (glycoprotein A repetitions …) (assay: FACS, Ag(+) cells, supernatant heated 70 C 5 min, 0.2 ug/ml).

Binder | MFI [MFI]
B2 | 22.6
B3 | 21.8
B4 | 23
B5 | 23
B6 | 23.2
B7 | 23.6
B8 | 22.7
B9 | 22.1
B10 | 24.2
B11 | 21.7
B12 | 24.2

The binders below were run against T1, human GARP (glycoprotein A repetitions …) (assay: FACS, Ag(+) cells, supernatant heated 70 C 5 min, 1 ug/ml).

Binder | MFI [MFI]
B2 | 24.8
B4 | 25.4
B5 | 25.1
B6 | 25.4
B8 | 24.6
B9 | 24.6
B10 | 25.4
B11 | 25
B12 | 25.8

These binders were tested against T2, human GARP (antigen, construct not stated) (human, UniProt Q14392 20-627, limits assumed) (assay: Gator label-free kinetics, IgG on anti-human Fc probe, antigen 5 ug/ml).
T2 sequence (looked up): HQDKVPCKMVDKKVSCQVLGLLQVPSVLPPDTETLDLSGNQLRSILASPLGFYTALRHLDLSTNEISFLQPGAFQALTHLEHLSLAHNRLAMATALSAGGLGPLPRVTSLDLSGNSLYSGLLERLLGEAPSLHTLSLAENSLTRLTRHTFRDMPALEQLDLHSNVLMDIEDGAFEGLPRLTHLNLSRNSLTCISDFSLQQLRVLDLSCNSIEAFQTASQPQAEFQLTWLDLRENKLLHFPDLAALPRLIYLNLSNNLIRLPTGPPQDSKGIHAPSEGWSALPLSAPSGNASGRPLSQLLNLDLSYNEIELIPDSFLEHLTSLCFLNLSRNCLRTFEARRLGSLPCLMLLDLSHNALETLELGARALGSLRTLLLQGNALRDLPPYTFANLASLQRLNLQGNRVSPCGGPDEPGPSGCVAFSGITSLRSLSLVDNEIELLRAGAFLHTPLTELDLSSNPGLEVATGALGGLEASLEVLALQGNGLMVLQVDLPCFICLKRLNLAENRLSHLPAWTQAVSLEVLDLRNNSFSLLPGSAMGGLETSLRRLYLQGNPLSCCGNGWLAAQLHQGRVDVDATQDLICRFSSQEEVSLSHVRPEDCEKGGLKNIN

Binder | Kd [nM] | Req | Response | kobs
B1 | 8.05 | 0.743 | 0.737 | 0.0134
B3 | 8.15 | 0.831 | 0.824 | 0.0133
B5 | 8.03 | 0.71 | 0.703 | 0.0133

Each binder was assayed against T1, human GARP (glycoprotein A repetitions …) (assay: flow cytometry on human Tregs (drawn table)).

Binder | binding result
B13 | binds

The binders below were run against T1, human GARP (glycoprotein A repetitions …) (assay: FACS, Ag(+) cells, 0 ug/ml antibody (blank)).

Binder | MFI [MFI]
B1 | 9.91
B2 | 9.91
B3 | 9.91
B4 | 9.91
B5 | 9.91
B6 | 9.91
B7 | 9.91
B8 | 9.91
B9 | 9.91
B10 | 9.91
B11 | 9.91
B12 | 9.91

What follows are binders tested against T1, human GARP (glycoprotein A repetitions …) (assay: FACS, Ag(+) cells, culture supernatant, 5 ug/ml).

Binder | MFI [MFI]
B1 | 26.4
B2 | 26.2
B3 | 26.1
B4 | 26.3
B5 | 26.8
B6 | 26.5
B7 | 26.7
B8 | 26.4
B9 | 26.2
B10 | 27.3
B11 | 26.3
B12 | 26.7

The binders below were run against T1, human GARP (glycoprotein A repetitions …) (assay: FACS, Ag(+) cells, supernatant heated 70 C 5 min, 5 ug/ml).

Binder | MFI [MFI]
B1 | 26.2
B2 | 26.1
B3 | 25.7
B4 | 26.3
B5 | 26.2
B6 | 26.4
B7 | 25.7
B8 | 26.5
B9 | 25.8
B10 | 26.9
B11 | 25.1
B12 | 27

These binders were tested against T1, human GARP (glycoprotein A repetitions …) (assay: FACS, Ag(+) cells, heated-sample series, 0 ug/ml antibody (blank)).

Binder | MFI [MFI]
B1 | 9.91
B2 | 9.91
B3 | 9.91
B4 | 9.91
B5 | 9.91
B6 | 9.91
B7 | 9.91
B8 | 9.91
B9 | 9.91
B10 | 9.91
B11 | 9.91
B12 | 9.91

These binders were tested against T1, human GARP (glycoprotein A repetitions …) (assay: FACS, Ag(+) cells, culture supernatant, 1 ug/ml).

Binder | MFI [MFI]
B1 | 25.8
B3 | 25.2
B4 | 25.7
B6 | 25.6
B7 | 25.1
B8 | 24.9
B9 | 25.3
B10 | 26.2
B11 | 24.9
B12 | 26.3
